According to patent publication US7572600B2, “Enzymatic activities in chemokine-mediated inflammation” (Chemocentryx, Inc., priority 2004, dated 2009):
One block for each molecule: values may come before it.

Experiments:
CCR9 = target: T1, CCR9 (Homo sapiens, UniProt P51686); assay: Calcium mobilization in Molt4 cells; type: cell-based; details: digestions at 1 nM, all proteases and fluids tested
T1 construct: endogenous in cells; host or cells: Molt4 cells (per the assay name)
T1 sequence (P51686 1-369): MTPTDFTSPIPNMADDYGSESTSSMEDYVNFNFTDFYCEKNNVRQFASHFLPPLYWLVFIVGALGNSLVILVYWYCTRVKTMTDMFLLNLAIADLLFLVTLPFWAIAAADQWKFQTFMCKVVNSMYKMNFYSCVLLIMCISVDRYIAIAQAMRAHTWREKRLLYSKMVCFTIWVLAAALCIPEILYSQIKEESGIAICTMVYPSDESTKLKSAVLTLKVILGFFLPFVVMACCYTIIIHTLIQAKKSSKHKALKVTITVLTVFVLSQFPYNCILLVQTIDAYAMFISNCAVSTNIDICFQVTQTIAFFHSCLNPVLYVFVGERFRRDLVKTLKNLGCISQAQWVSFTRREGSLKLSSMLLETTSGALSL
Description: (§1) Calcium Mobilization Assay. Cells were loaded for 1 hour with 2 μM indo-1/AM dye (Molecular Probes, Eugene, Oreg.) in culture medium, then washed with 10 ml PBS and resuspended at 10^6/ml in HBSS containing 1% FBS. Cytosolic calcium responses were determined using a Photon Technology International (Lawrenceville, N.J.) fluorimeter, with excitation at 350 nm and dual emission at 400 and 490 nm. Alternatively, cells were loaded with 5 μg/ml Fluo-4 AM dye (Molecular Probes, Eugene, Oreg.), then washed and analyzed on a Fluorometric Imaging Plate Reader 384 (FLIPR^384 Molecular Devices, Sunnyvale, Calif.), with 505 nm excitation and 530 nm emission.

CCR1 [1] = target: T2, CCR1 (Homo sapiens, UniProt P32246); assay: Calcium mobilization in murine L1.2 cells expressing human CCR1; type: cell-based; design: expressed in transfected cells; host or cells: murine L1.2 cells (G-418 selected transfectant); details: for calcium mobilization: L1.2-CCR1 cells
T2 sequence (P32246 1-355): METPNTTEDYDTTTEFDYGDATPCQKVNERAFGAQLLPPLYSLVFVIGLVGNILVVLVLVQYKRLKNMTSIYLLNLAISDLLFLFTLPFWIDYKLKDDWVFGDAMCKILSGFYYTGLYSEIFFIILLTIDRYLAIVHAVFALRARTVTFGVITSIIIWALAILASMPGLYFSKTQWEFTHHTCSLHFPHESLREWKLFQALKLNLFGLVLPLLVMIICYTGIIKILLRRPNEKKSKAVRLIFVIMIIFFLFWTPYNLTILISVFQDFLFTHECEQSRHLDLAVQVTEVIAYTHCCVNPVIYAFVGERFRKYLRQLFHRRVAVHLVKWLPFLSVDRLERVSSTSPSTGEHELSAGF
Description: as §1
(§2) Receptor signaling assay. For individual measurements, cells were loaded for 45 min at room temperature with 2 μM indo-1/AM (Invitrogen, Carlsbad Calif.) in culture medium, then washed with 10 ml PBS and resuspended at 10^6 cells/ml in HBSS containing 0.1% BSA. Cytosolic calcium levels were determined using a Photon Technology International fluorimeter (excitation at 350 nm, ratio of dual emission at 400 and 490 nm). For measuring calcium dose responses, cells were analyzed with a Fluorometric Imaging Plate Reader 384 (FLIPR^384) (Molecular Devices, Sunnyvale, Calif.). Cells were loaded for 1 hr at 37° C. with 5 μM fluo-4 in HBSS with 0.1% BSA, then washed, transferred to black-wall 96-well plates, and subsequently excited at 505 nm with emission recorded at 530 nm with a standard protocol provided by the manufacture. Cells were stimulated with agonists 20 s after the monitoring of fluorescence began. Data were analyzed and plotted in arbitrary units of fluorescence using Prism. To ensure that responses were specific to FPRL1, we utilized a selective small-molecule antagonist of human FPRL1, generated by ChemoCentryx, which was optimized from a high throughput compound library screening approach.

[2] = test system: monocyte-derived dendritic cells; assay: Calcium mobilization in monocyte-derived dendritic cells; type: cell-based, human; details: immature DC; after digestion with chymase, cathepsin G, elastase, synovial fluid or PMN sup #1
Description: Human monocytes were obtained from buffy coats purchased from the Stanford Blood Bank (Palo Alto, Calif.) by sedimentation on Ficoll-Paque (Amersham, Piscataway, N.J.) and selection with anti-CD14 magnetic beads (Miltenyi, Auburn, Calif.) according to the manufacturers' instructions. For generation of dendritic cells, monocytes were cultured for 6 days in RPMI-1640 medium containing 10% FBS (HyClone, Logan, Utah). On days 0, 2 and 4, GM-CSF and IL-4 (both purchased from R&D Systems, Minneapolis, Minn.) were added to the cultures at 1000 WHO unit/ml each. The cells were confirmed to be CD14^−CD1a^+ immature DC by FACS staining on day 6.
as §1
Immature and mature DC preparation. Immature DCs were derived by culturing CD14+ monocytes in T-175 cultured flasks at a density of 10^6 cells/ml in RPMI supplemented with 10% FBS. Recombinant human cytokines GM-CSF and IL-4 (final concentration 1000 and 500 U/ml, respectively) were added on day 0, 2, 4 and 6. Cells were harvested on day 6 as immature DCs and characterized for surface marker expression by flow cytometry. DC maturation was carried out by culturing day-6 immature DCs in RPMI-10% FBS supplemented with GM-CSF, IL-4 and 50 μg/ml polyIC (Sigma, St. Louis Mo.). After two more days of culture, cells were harvested as mature DCs and characterized by surface marker expression by flow cytometry.
as §2

L1.2-CCR1 cells = target: T3, L1.2-CCR1 cells (Homo sapiens, UniProt P32246); assay: L1.2-CCR1 chemotaxis assay; type: cell-based; details: three-point titrations 0.5, 5, 50 nM, 2 hr
T3 construct: expressed in transfected cells; host or cells: murine L1.2 cells (G-418 selected transfectant)
T3 sequence (P32246 1-355): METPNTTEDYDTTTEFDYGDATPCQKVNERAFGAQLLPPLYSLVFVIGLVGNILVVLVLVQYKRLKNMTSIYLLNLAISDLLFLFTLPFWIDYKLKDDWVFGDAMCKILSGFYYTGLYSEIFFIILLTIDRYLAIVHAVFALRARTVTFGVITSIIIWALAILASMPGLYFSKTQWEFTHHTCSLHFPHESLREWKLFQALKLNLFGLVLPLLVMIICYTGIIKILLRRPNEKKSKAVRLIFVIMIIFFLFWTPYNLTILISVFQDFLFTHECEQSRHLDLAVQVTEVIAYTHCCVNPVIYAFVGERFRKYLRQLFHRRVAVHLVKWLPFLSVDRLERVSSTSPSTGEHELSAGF
Description: (§3) Chemotaxis assay. L1.2-CCR1 transfectants, THP-1 cells, human monocytes and human neutrophils were collected by centrifugation and resuspended in HBSS containing 0.1% BSA. Chemotaxis assays were performed in 96-well ChemoTx® microplates (Neuroprobe, Rockville, Md.) as follows. Chemokines were added to the lower wells (final volume 29 μL), and 20 μL of cell suspension (5×10^6 cells/mL) was added to the polycarbonate filter (3 μm pore size for neutrophils, 5 μm for other 3 cell types). After incubation at 37° C. in the presence of 5% CO2 for 1 hr (neutrophils), 90 min (monocytes) or 2 h (THP-1 and L1.2-CCR1), cells were removed from the upper surface of the filter by scraping. Cells that migrated into the lower chamber were quantified by using the CyQuant cell proliferation assay kit (Molecular Probes, Eugene, Oreg.) and analyzed with a Tecan (Durham, N.C.) fluorimeter (excitation at 480 nm, emission at 530 nm). Data were analyzed and plotted in arbitrary units of fluorescence using Prism (GraphPad Software, San Diego, Calif.).

human monocytes [3] = assay: Chemotaxis of human monocytes; type: cell-based
Description: as §3
(§4) Chemotaxis assays. L1.2-CCR1 and L1.2-FPRL1 transfectants, monocytes and neutrophils were collected by centrifugation and resuspended in HBSS with 0.1% BSA. The assays were performed in 96-well ChemoTx® microplates (Neuroprobe, Rockville, Md.). Chemokines were diluted in HBSS with 0.1% BSA and added to the lower wells (final volume 29 μL), then 20 μL of cell suspension (5×10^6 cells/mL for monocytes; 2.5×10^6 cells/mL for neutrophils) were added to the polycarbonate filters (5 μm pore size for monocytes and FPRL1 transfectants; 3 μm pore size for neutrophils). After incubation for 90 min (37° C., 100% humidity, 5% CO2), the filters were removed and the cells that migrated into the lower chamber were quantified by using the CyQuant cell proliferation assay kit (Molecular Probes, Oreg.).

human monocytes [4] = assay: Calcium mobilization in freshly isolated human monocytes; type: cell-based
Description: as §1, §2

CCR1 [5] = target: T2, CCR1; assay: Competition binding with 125I-MIP-1α on human monocytes; design: endogenous in cells; host or cells: human CD14+ monocytes from buffy coats
Description: Binding assay. Competition binding studies were conducted using monocytes, L1.2-CCR1 or L1.2-FPRL1 cells. Cells were incubated for 3 hr at 4° C. with ^125I-MIP-1α (final concentration ˜0.05 nM) or ^125I-WKYMVm (final concentration ˜0.01 nM) in buffer (25 mM HEPES, 140 mM NaCl, 1 mM CaCl2, 5 mM MgCl2 and 0.2% BSA, adjusted to pH 7.1) in the presence of increasing amounts of unlabeled chemokine. Reactions were aspirated onto PEI-treated GF/B glass filters using a cell harvester (Packard). Filters were washed twice (25 mM HEPES, 500 mM NaCl, 1 mM CaCl2, 5 mM MgCl2, adjusted to pH 7.1). Scintillant (MicroScint-10; 35 μl) was added to the filters and counted in a Packard Topcount scintillation counter. Data were analyzed and plotted using Prism (GraphPad Software, San Diego, Calif.).

human neutrophils = assay: Chemotaxis of human neutrophils; type: cell-based
Description: as §3, §4

[6] = 10 nM input chemokine, after digestion with proteases and fluids
[7] = 10 nM, undigested or recombinant chemokine
[8] = undigested chemokine or peptide, 100 nM (CCL23β up to 250 nM)

signaling through CCR9 after digestion (CCR9): inactivated
B1: CCL25/TECK: non-C6* β-chemokine signaling through CCR9 (protein, UniProt O15444 24-150, looked up)
C-C motif chemokine 25: QGVFEDCCLAYHYPIGWAVLRRAWTYRIQEVSGSCNLPAAIFYLPKRHRKVCGNPKSREVQRAMKLLDARNKVFAKLHHNTQTFQAGPHAVKKLSSGNSKLSSSKFSNPISSSKRNVSLLISANSGL

calcium mobilization (CCR1 [1]; [6]): uniformly active
calcium mobilization (CCR1 [1]; [7]): either not active or weakly active
chemotaxis potency of truncated forms versus full-length chemokine (L1.2-CCR1 cells): greater potency
B2: CCL6/C10: recombinant murine C6* chemokine (protein, listed as Homo sapiens)
chain: GLIQEMEKEDRRYNPPIIHQGFQDTSSDCCFSYATQIPCKRFIYYFPTSGGCIKPGIIFISRRGTQVCADPSDRRVQRCLSTLKQGPRSGNKVIA
calcium mobilization versus full-length chemokine [2]: more efficacious
chemotaxis (human monocytes [3]; 200 nM after digestion with chymase, cathepsin G or elastase): stimulated chemotaxis
concentration with the most migration (human monocytes [3]; after digestion with synovial fluid #1): 2 nM
calcium mobilization (human monocytes [4]; 100 nM after digestion with chymase, cathepsin G, elastase or synovial fluid): mobilized calcium
calcium mobilization (human monocytes [4]; [8]): unable to induce calcium mobilization

calcium mobilization (CCR1 [1]; [6]): uniformly active
calcium mobilization (CCR1 [1]; [7]): either not active or weakly active
chemotaxis potency of truncated forms versus full-length chemokine (L1.2-CCR1 cells): greater potency
B3: CCL9/MIP-1γ: recombinant murine C6* chemokine (protein, listed as Homo sapiens)
chain: QITHATETKEVQSSLKAQQGLEIEMFHMGFQDSSDCCLSYNSRIQCSRFIGYFPTSGGCTRPGIIFISKRGFQVCANPSDRRVQRCIERLEQNSQPRTYKQ

inhibition of 125I-MIP-1α binding (CCR1 [5]): most potent competitor
B4: CCL23Δ24/MPIF-1: Recombinant CCL23/CKβ8 lacking the N-terminal 24 residues (46-120) (protein)
chain: RFHATSADCCISYTPRSIPCSLLESYFETNSECSKPGVIFLTKKGRRFCANPSDKQVQVCMRMLKLDTRIKTRKN
calcium mobilization in the CCR1 transfectant (CCR1 [1]; L1.2 cells stably expressing human CCR1): effective at inducing calcium mobilization
chemotaxis (human neutrophils): unable to induce migration
chemotaxis (human monocytes [3]; undigested): moderately strong chemoattraction
calcium mobilization (human monocytes [4]; [8]): strong calcium responses
